# How the values were obtained:
# [1] = biological target: β’ subunit of E. coli RNAP (E. coli, UniProt P0A8T7 1-1407); experiment: cryo-EM structure
# [2] = biological target: β subunit of E. coli RNAP (E. coli, UniProt P0A8V2 1-1342); experiment: cryo-EM structure
# β subunit of E. coli RNAP, sequence (P0A8V2 whole entry): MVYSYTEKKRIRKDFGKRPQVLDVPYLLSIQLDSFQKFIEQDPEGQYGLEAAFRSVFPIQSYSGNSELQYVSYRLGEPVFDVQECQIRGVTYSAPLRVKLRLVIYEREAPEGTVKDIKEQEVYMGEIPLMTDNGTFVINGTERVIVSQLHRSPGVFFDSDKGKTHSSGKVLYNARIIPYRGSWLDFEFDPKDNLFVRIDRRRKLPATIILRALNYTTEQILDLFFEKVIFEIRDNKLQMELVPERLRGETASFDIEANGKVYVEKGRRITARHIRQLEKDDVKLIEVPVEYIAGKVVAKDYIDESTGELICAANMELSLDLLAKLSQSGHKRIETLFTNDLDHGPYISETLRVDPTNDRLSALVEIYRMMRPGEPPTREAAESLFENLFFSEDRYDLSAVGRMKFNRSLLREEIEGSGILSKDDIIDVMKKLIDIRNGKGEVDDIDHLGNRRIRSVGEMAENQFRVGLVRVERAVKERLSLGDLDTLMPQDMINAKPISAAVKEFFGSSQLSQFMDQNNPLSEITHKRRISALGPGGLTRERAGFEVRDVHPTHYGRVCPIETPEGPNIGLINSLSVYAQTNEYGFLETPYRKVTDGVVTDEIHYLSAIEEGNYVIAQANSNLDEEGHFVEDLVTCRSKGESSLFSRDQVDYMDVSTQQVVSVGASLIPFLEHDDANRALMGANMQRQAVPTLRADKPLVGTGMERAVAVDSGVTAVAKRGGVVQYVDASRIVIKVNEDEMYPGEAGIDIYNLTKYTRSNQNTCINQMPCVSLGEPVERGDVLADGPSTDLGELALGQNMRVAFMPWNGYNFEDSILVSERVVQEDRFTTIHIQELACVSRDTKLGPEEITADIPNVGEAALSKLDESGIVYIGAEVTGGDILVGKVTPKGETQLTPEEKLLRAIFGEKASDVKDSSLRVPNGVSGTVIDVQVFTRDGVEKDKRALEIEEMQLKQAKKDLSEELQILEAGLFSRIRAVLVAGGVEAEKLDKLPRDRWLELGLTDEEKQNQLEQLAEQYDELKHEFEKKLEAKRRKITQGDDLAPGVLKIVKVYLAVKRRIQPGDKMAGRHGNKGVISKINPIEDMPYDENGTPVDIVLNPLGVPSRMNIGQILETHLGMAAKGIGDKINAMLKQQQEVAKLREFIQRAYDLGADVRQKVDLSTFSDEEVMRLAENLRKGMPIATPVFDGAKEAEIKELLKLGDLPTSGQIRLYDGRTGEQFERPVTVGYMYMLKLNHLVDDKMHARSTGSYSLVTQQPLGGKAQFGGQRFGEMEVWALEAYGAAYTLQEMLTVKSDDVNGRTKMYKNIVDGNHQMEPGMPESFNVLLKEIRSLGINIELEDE
# β’ subunit of E. coli RNAP, sequence (P0A8T7 whole entry): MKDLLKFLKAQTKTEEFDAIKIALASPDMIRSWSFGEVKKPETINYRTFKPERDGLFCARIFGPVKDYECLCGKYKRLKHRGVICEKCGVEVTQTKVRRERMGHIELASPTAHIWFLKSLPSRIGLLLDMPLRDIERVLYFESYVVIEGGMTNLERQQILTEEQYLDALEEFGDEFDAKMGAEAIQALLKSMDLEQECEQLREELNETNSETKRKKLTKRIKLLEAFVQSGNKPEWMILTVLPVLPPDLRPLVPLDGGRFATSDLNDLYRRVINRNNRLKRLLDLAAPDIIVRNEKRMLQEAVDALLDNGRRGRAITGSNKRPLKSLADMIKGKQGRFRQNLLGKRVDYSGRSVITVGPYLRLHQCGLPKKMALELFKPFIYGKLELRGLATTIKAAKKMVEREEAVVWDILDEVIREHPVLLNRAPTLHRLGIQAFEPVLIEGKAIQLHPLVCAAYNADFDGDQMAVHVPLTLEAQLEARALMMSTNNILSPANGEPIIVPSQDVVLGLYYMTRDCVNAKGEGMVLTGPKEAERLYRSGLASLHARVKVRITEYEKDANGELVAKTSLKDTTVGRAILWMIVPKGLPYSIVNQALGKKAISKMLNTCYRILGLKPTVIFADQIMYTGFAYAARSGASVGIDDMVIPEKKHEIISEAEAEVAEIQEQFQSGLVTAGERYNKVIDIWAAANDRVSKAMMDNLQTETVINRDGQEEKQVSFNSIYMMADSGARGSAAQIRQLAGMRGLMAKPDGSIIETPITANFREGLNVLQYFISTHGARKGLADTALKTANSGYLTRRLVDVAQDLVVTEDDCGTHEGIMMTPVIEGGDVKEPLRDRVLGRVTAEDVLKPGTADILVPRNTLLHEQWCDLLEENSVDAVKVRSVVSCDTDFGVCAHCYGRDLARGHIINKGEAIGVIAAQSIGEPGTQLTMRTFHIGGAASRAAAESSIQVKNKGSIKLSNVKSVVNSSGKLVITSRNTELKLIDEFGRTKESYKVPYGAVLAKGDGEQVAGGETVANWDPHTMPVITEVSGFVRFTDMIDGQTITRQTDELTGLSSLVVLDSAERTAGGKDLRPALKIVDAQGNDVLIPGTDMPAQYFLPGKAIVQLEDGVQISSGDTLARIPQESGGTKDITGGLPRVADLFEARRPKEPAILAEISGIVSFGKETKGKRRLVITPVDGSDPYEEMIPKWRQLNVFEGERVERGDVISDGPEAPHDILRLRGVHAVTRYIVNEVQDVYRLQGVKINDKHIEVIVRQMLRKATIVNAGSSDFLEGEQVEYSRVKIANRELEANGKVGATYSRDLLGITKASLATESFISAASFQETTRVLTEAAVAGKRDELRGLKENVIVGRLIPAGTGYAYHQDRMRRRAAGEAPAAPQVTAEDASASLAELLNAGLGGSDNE
binder,measurement,setting,value
"E. coli RapA protein (enzyme, UniProt P60240 1-968, looked up) MPFTLGQRWISDTESELGLGTVVAVDARTVTLLFPSTGENRLYARSDSPVTRVMFNPGDTITSHDGWQMQVEEVKEENGLLTYIGTRLDTEESGVALREVFLDSKLVFSKPQDRLFAGQIDRMDRFALRYRARKYSSEQFRMPYSGLRGQRTSLIPHQLNIAHDVGRRHAPRVLLADEVGLGKTIEAGMILHQQLLSGAAERVLIIVPETLQHQWLVEMLRRFNLRFALFDDERYAEAQHDAYNPFDTEQLVICSLDFARRSKQRLEHLCEAEWDLLVVDEAHHLVWSEDAPSREYQAIEQLAEHVPGVLLLTATPEQLGMESHFARLRLLDPNRFHDFAQFVEEQKNYRPVADAVAMLLAGNKLSNDELNMLGEMIGEQDIEPLLQAANSDSEDAQSARQELVSMLMDRHGTSRVLFRNTRNGVKGFPKRELHTIKLPLPTQYQTAIKVSGIMGARKSAEDRARDMLYPERIYQEFEGDNATWWNFDPRVEWLMGYLTSHRSQKVLVICAKAATALQLEQVLREREGIRAAVFHEGMSIIERDRAAAWFAEEDTGAQVLLCSEIGSEGRNFQFASHMVMFDLPFNPDLLEQRIGRLDRIGQAHDIQIHVPYLEKTAQSVLVRWYHEGLDAFEHTCPTGRTIYDSVYNDLINYLASPDQTEGFDDLIKNCREQHEALKAQLEQGRDRLLEIHSNGGEKAQALAESIEEQDDDTNLIAFAMNLFDIIGINQDDRGDNMIVLTPSDHMLVPDFPGLSEDGITITFDREVALAREDAQFITWEHPLIRNGLDLILSGDTGSSTISLLKNKALPVGTLLVELIYVVEAQAPKQLQLNRFLPPTPVRMLLDKNGNNLAAQVEFETFNRQLNAVNRHTGSKLVNAVQQDVHAILQLGEAQIEKSARALIDAARNEADEKLSAELSRLEALRAVNPNIRDDELTAIESNRQQVMESLDQAGWRLDALRLIVVTHQ",binding result,[1],binds
same,binding result,[2],binds

# — publication doi:10.1101/2021.05.05.442812 (bioRxiv, 2021)
